The experiment deals with T1, human Bcl-XL-GST fusion protein (human, UniProt P08515 1-218 = GST; Q07817 1-211).
T1 construct: Made in E. coli, immobilized on glutathione Sepharose beads; whole entry named; also called Bcl-XL-glutathione S-transferase (GST) fusion protein; GST-BCL-XL
As to the kind of experiment: mRNA display selection on immobilized Bcl-XL-GST. The protocol:
Detection of a polypeptide binding to a Bcl-XL-glutathione S-transferase (GST) fusion protein was carried out as follows. Twenty microliters of glutathione Sepharose 4B slurry (AP Biotech) was aliquoted to a microcentrifuge tube and washed with PBS. The Bcl-XL-GST fusion protein (60 μg), prepared as describe above, was added and allowed to bind to the Sepharose beads for 1 hr at 4° C. The beads were then re-washed in selection buffer (50 mM Tris-HCL pH 7.5, 150 mM KCl, 0.05% Triton X-100, 0.5 mg/ml BSA, and 0.1 mg/ml salmon sperm DNA). The Bcl-XL-GST beads were resuspended in 100 μl of selection buffer (approximately 11.5 μM Bcl-XL) and ³⁵S-labeled mRNA display construct or free peptide was added (approximately 10-60 nM) and incubated on a rotator for 1 hr at 4° C. The reaction was then transferred to a microcentrifuge column (BioRad) and unbound mRNA display constructs or free peptides were removed by a 10 sec spin at 1,000 rpm. The Sepharose beads were then washed three times with 500 μl of selection buffer. The extent of binding between the Bcl-XL-GST fusion protein and the mRNA display constructs or free peptides was determined by scintillation counting each fraction, including the recovered beads.
A human Bcl-XL-GST fusion protein was immobilized on Sepharose beads as described above for the binding assay and incubated with the mRNA display library. For the first round of selection, the input was approximately 0.06 pmol of each of the four source labeled libraries from human tissues (kidney, liver, bone marrow, and brain), which were mixed prior to selection. For subsequent rounds of selection, the input of each of the four source labeled libraries ranged from 0.25 to 0.92 pmol in total. After washing the beads of any unbound nucleic acid-protein fusion library members, the cDNA strand of the bound fusions were recovered in three elutions with 100 μl of 0.1N KOH. Eluates were subsequently neutralized by the addition of 2 μl of 1N Tris-HCL pH 7 and 8 μl of 1N HCL. A small scale PCR optimization was performed with the eluate to determine the number of cycles required to produce a strong signal without overamplification (typically 18-28 cycles). The library was then regenerated by PCR using the remainder of the eluate.

The values that follow come from patent US20030032157A1, “Polypeptides interactive with Bcl-XL” (priority 2001, published 2003).

T1 sequence (P08515 1-218, tags or fused parts left off): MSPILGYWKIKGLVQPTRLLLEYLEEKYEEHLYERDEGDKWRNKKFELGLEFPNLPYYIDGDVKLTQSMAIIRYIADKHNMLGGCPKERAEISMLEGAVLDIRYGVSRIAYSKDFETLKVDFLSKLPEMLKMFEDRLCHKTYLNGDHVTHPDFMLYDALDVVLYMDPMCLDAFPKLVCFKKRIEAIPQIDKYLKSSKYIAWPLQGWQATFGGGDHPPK

B1: SEQ ID NO 26 (peptide)
chain: ANLLLLMVPILIAMAFLMLTERKILGYIQPR
notes: mRNA display clone from a known polypeptide
Take B1: the binding result is on record as “binds”.

B2: L-plastin cluster polypeptide (peptide)
chain: SGLRKPTCGSSQR
notes: Selected clone derived from the 3' UTR of the parent mRNA; not further characterized
For the molecule B2, the binding result is “binds”.

B3: transforming growth factor cluster polypeptide (peptide)
chain: FVRSVGWRLQNIGDDMDHAICGHDVRLG
notes: Selected clone with insert in reversed orientation relative to the parent mRNA; not further characterized
B3: the binding result is listed as “binds”.

B4: SEQ ID NO 17 (peptide)
chain: LFTILLTLWTMRCSSTPSG
notes: as for B1
As for B4, the binding result is reported as “binds”.

B5: SEQ ID NO 56 (peptide)
chain: EDLESVLIRLINWAKGSPIP
On to B5, for which the binding result is on record as “binds”.

B6: SEQ ID NO 24 (peptide)
chain: GFLAAEQDIREEIRKVVQSLEQTAREVLTLLQG
notes: as for B1
Take B6: the binding result is listed as “binds”.

B7: SEQ ID NO 42 (peptide)
chain: GVSEAEGTFPLSTFLLGIASRLRSVA
notes: mRNA display clone from a hypothetical or unknown polypeptide
B7: the binding result is listed as “binds”.

B8: SEQ ID NO 48 (peptide)
chain: LFSVLLRYLADNFLPGGS
notes: as for B7
In the case of B8, the binding result is reported as “binds”.

B9: SEQ ID NO 19 (peptide)
chain: GLREESEEYMAAADEYNRLKQVKQPA
notes: as for B1
For the molecule B9, the binding result was “binds”.

B10: SEQ ID NO 57 (peptide)
chain: RPVSFCGAVWTLNRAIGRHFVRGSR
For B10, the binding result is listed as “binds”.

B11: clone w75 (peptide)
chain: RTLQPRLLQNQQQHLPALPIWFLLQWLRLHPL
notes: as for B7
Consider B11, for which the binding result is “binds”.

B12: SEQ ID NO 47 (peptide)
chain: PWQYKPIADLYRGRESRPSAPR
notes: as for B7
On to B12, for which the binding result is listed as “binds”.

B13: SEQ ID NO 60 (peptide)
chain: IAQATKATIDKWNCIKLKIFYTSKKEAS
On to B13, for which the binding result is “binds”.

B14: SEQ ID NO 38 (peptide)
chain: MAVIINELSQRDSCGPLKISLNNKILVYGNLFSSFTP
notes: as for B7
Turning to B14, the binding result is “binds”.

B15: SEQ ID NO 27 (peptide)
chain: LRLNTTVWPTIITPILLTLFLITNRLITTR
notes: as for B1
B15: the binding result is on record as “binds”.

B16: lysosomal pepstatin insensitive protease cluster polypeptide (peptide)
chain: ATWMKTLQGLLDRIQAFPSSPH
notes: as for B2
Consider B16, for which the binding result is listed as “binds”.

B17: UDP glucoronosyl transferase 2B4 precursor cluster polypeptide (peptide)
chain: VSCWPSYLKYPLSTASASLLATQLKSIA
notes: Selected clone translated from the incorrect reading frame; not further characterized
As for B17, the binding result is “binds”.

B18: SEQ ID NO 23 (peptide)
chain: GSSKDLAKHIQVVCDGMDLTPKIHDLKPQC
notes: as for B1
As for B18, the binding result is “binds”.

B19: SEQ ID NO 61 (peptide)
chain: VVDVPDFIVWLEEAVSDLHRAL
Take B19: the binding result is reported as “binds”.

B20: SEQ ID NO 40 (peptide)
chain: SSQALRIHQWLHLFSDFTST
notes: as for B7
Turning to B20, the binding result is recorded as “binds”.

B21: MYBPC3 cluster polypeptide (peptide)
chain: EANRKQPKPNNSSTAYYNFTGVSILPSYKP
notes: as for B2
As to B21, the binding result is “binds”.

B22: SEQ ID NO 59 (peptide)
chain: GQGTLWGSGMEAWLATVLKALPWHPTYQLEP
On to B22, for which the binding result was “binds”.

B23: SEQ ID NO 58 (peptide)
chain: HAVVARLLHIGAIMFQRLDFIEQLSAPPA
B23: the binding result was “binds”.

B24: SEQ ID NO 43 (peptide)
chain: RAPRFIKQILLDLKREIDFNVRLVEYFNPLS
notes: as for B7
Regarding B24, the binding result is “binds”.

B25: SEQ ID NO 16 (peptide)
chain: TYWNLLPPKRPIKEVLTDIFAKVLEKGWVDSRS
notes: as for B1
Turning to B25, the binding result is “binds”.

B26: SEQ ID NO 55 (peptide)
chain: EQASVKYVILDMYRALLTLMNTSTAT
Turning to B26, the binding result was “binds”.

B27: SEQ ID NO 18 (peptide)
chain: AGEDMEISVKELRTILNRIISKHKDLRT
notes: as for B1
Consider B27, for which the binding result is given as “binds”.

B28: SEQ ID NO 53 (peptide)
chain: CREQAELTGLRLASLGLKFNKIVHSSMTRAIET
For the molecule B28, the binding result was “binds”.

B29: SEQ ID NO 22 (peptide)
chain: ARGDFAQAAQQLWLALRALGRPLPTSH
notes: as for B1
For B29, the binding result is listed as “binds”.

B30: SEQ ID NO 52 (peptide)
chain: ASMAPVGRDAETLQKQKETIKAFLKKLEALMASNDNANKT
In the case of B30, the binding result is “binds”.

B31: SEQ ID NO 45 (peptide)
chain: LALAYYSSRQYASALKHIAEIIERGIRQH
notes: as for B7
As to B31, the binding result was “binds”.

B32: SEQ ID NO 21 (peptide)
chain: WERIEERLAYIADHLGFSWTELARAL
notes: as for B1
Take B32: the binding result is listed as “binds”.

B33: SEQ ID NO 15 (peptide)
chain: SNELTRAVEELHKLLKEARE
notes: as for B1
For B33, the binding result is reported as “binds”.

B34: SEQ ID NO 13 (peptide)
chain: RGAVFSQDKDVVQEATKVLRNAADNFYINDR
notes: as for B1
In the case of B34, the binding result is given as “binds”.

B35: SEQ ID NO 39 (peptide)
chain: GLAKKSKRNPANLTPP
notes: as for B7
With B35, the binding result was “binds”.

B36: SEQ ID NO 28 (peptide)
chain: TLYLKLTALAVTFLGLLTALDLNYPT
notes: as for B1
As for B36, the binding result is “binds”.

B37: SEQ ID NO 14 (peptide)
chain: TGTGAPRFIKEVQELNSALHQSDLIDIYRTLHP
notes: as for B1
For the molecule B37, the binding result is given as “binds”.

B38: SEQ ID NO 50 (peptide)
chain: GAMEREWAMFLRAASSRIRGGV
notes: as for B7
Regarding B38, the binding result is “binds”.

B39: SEQ ID NO 49 (peptide)
chain: DWQVLLGKLLWKIDNPGI
notes: as for B7
Take B39: the binding result was “binds”.

B40: SEQ ID NO 36 (peptide)
chain: ILTSPWTTSSGLWPRLQKAAEAFKQLNQP
notes: as for B7
On to B40, for which the binding result is given as “binds”.

B41: arsenate resistance protein cluster polypeptide (peptide)
chain: AGTQPLILAQFMRVGGDELLHFLLW
notes: as for B3
B41: the binding result is recorded as “binds”.

B42: SEQ ID NO 46 (peptide)
chain: AAMLLDRRGTECDLWINEMSLLHKIVQDVYGTPHPPHS
notes: as for B7
B42: the binding result is given as “binds”.

B43: SEQ ID NO 34 (peptide)
chain: TSTLPHIRRTR
notes: as for B7
Take B43: the binding result was “binds”.

B44: K-ras oncogene cluster polypeptide (peptide)
chain: MDTIKGFDLITNFQVVADALNISLLPNPLATA
notes: as for B2
As for B44, the binding result is recorded as “binds”.

B45: SEQ ID NO 51 (peptide)
chain: VHNFGRHWGLPLSFLLNYPLFLSP
As to B45, the binding result is “binds”.

B46: SEQ ID NO 54 (peptide)
chain: GTRISDMLKLIADTWQRNCCPA
For the molecule B46, the binding result was “binds”.

B47: SEQ ID NO 62 (peptide)
chain: QRRGNEFQLRDLADAWDLSSRSRQRGWQMPNCRSRRGPG
B47: the binding result is recorded as “binds”.

B48: cDNA FLJ20617 cluster polypeptide (peptide)
chain: GSLTHHINNIKPSSTR
notes: as for B17
For the molecule B48, the binding result is “binds”.
